Patent US20150111814A1

Molecular target: HIV-1 BaL envelope protein spike (Env) on virions (HIV-1 BaL strain)
Experiment: cell-based or functional assay

| Substance | IC50, p24 leakage from fully infectious HIV-1 BaL (ELISA) [nM] |
| --- | --- |
| DAVEI 4 (Dual Acting Virucidal Entry Inhibitor; cyanovirin-N-(Gly4Ser)4-His6-MPER fusion) | 200 |
| DAVEI 8 (Dual Acting Virucidal Entry Inhibitor; cyanovirin-N-(Gly4Ser)8-His6-MPER fusion) | 395 |
